Patent US20210130436A1 (published 2021)

How the values were obtained:
[1] = molecular target: T1, CD28 on Jurkat/IL2 reporter cells (human, UniProt P10747 19-220); test: flow cytometry, Jurkat cells (CD28)
T1 construct: whole, on cells; Endogenous CD28 of Jurkat cells; also called Jurkats (CD28)

[2] = molecular target: T2, human PD-L1 on CHO cells (human, UniProt Q9NZQ7 19-290); test: flow cytometry, CHO cells stably expressing PD-L1
T2 construct: whole, on cells; CHO cells stably expressing PD-L1; also called huPD-L1
T2 sequence (Q9NZQ7 19-290): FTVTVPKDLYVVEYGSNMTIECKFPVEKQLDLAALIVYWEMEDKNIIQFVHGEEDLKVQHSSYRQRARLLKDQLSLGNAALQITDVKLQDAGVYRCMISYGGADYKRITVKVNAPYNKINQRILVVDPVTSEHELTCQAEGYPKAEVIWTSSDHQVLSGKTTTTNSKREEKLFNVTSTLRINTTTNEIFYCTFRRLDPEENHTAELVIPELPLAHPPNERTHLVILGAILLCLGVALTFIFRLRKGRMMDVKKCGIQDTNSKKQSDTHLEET

[3] = molecular target: T3, human CTLA4 on CHO cells (human, UniProt P16410 36-223); test: flow cytometry, CHO/CTLA4 cells; MFI relative to WT CD80
T3 construct: whole, on cells; CHO cells stably expressing CTLA4; also called huCTLA4
T3 sequence (P16410 36-223): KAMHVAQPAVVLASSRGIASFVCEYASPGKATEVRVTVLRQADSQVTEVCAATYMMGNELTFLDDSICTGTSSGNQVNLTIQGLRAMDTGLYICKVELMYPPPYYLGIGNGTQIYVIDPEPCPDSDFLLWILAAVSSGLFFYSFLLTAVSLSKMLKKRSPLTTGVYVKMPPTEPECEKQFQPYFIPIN

[4] = molecular target: T2, human PD-L1 on CHO cells; test: flow cytometry, CHO/PD-L1 cells; MFI relative to WT CD80
[5] = molecular target: T3, human CTLA4 on CHO cells; test: flow cytometry, CHO cells stably expressing CTLA4
[6] = molecular target: T2, human PD-L1 on CHO cells; test: flow cytometry; PD-L1 MFI over CD28 MFI
[7] = molecular target: T1, CD28 on Jurkat/IL2 reporter cells; test: flow cytometry, Jurkat cells (CD28); MFI relative to WT CD80
[8] = molecular target: T4, human PD-L1 (huPD-L1), full-length, stably expressed on CHO cells (human, UniProt Q9NZQ7 19-290); test: flow cytometry, CHO cells expressing huPD-L1
T4 construct: whole, on cells
T4 sequence (Q9NZQ7 19-290): as the sequence (Q9NZQ7 19-290) above

| MFI at 33.3 nM [1] [MFI] | MFI at 33.3 nM [2] [MFI] | Fold change to WT CD80 [3] [fold] | Fold change to WT CD80 [4] [fold] | MFI at 33.3 nM [5] [MFI] | Ratio of PDL1:CD28 [6] [ratio] | Fold change to WT CD80 [7] [fold] | MFI at 33.3 nM [8] [MFI] | Binder |
| --- | --- | --- | --- | --- | --- | --- | --- | --- |
| 72.4 | 2190 | 15.8 | 31.2 | 30300 | 30 | 1.1 | – | variant CD80 IgV-Fc E35D/T41S/N48I (Fc fusion, not shown: a dimerising Fc or GST, also called E35D/T41S/N48T) VIHVTKEVKEVATLSCGHNVSVEELAQTRIYWQKDKKMVLSMMSGDMTIWPEYKNRTIFDITNNLSIVILALRPSDEGTYECVVLKYEKDAFKREHLAEVTLSVKAD |
| 230 | 2700 | 14.6 | 38.5 | 27900 | 12 | 3.5 | – | variant CD80 IgV-Fc Q27L/E35D/M47V/I61V/L85M (Fc fusion, not shown: a dimerising Fc or GST) VIHVTKEVKEVATLSCGHNVSVEELALTRIYWQKDKKMVLTMMSGDVNIWPEYKNRTIFDVTNNLSIVILALRPSDEGTYECVVMKYEKDAFKREHLAEVTLSVKAD |
| 756 | 3420 | 14.4 | 48.7 | 27500 | 5 | 11.5 | – | variant CD80 IgV-Fc Q27H/E35D/M47I (Fc fusion, not shown: a dimerising Fc or GST) VIHVTKEVKEVATLSCGHNVSVEELAHTRIYWQKDKKMVLTMMSGDINIWPEYKNRTIFDITNNLSIVILALRPSDEGTYECVVLKYEKDAFKREHLAEVTLSVKAD |
| 816 | 5630 | 13.5 | 80 | 25900 | 7 | 12.4 | – | variant CD80 IgV-Fc E35D/M47I/N48K/I61F (Fc fusion, not shown: a dimerising Fc or GST) VIHVTKEVKEVATLSCGHNVSVEELAQTRIYWQKDKKMVLTMMSGDIKIWPEYKNRTIFDFTNNLSIVILALRPSDEGTYECVVLKYEKDAFKREHLAEVTLSVKAD |
| – | – | – | – | – | – | – | 13100 | variant CD80 IgV-Fc E35D/M47I/V68M/Y87N (Fc fusion, not shown: small tags and cut ends; a dimerising Fc or GST) VIHVTKEVKEVATLSCGHNVSVEELAQTRIYWQKDKKMVLTMMSGDINIWPEYKNRTIFDITNNLSIMILALRPSDEGTYECVVLKNEKDAFKREHLAEVTLSVKAD |
| 199 | 8310 | 8.7 | 118 | 16600 | 42 | 3 | – | variant CD80 IgV-Fc E35D/M47L/A71G/L85M (Fc fusion, not shown: a dimerising Fc or GST) VIHVTKEVKEVATLSCGHNVSVEELAQTRIYWQKDKKMVLTMMSGDLNIWPEYKNRTIFDITNNLSIVILGLRPSDEGTYECVVMKYEKDAFKREHLAEVTLSVKAD |
| 528 | 7580 | 12.6 | 108 | 24200 | 14 | 8 | – | variant CD80 IgV-Fc H18Y/E35D/M47L/A71G/A91S (Fc fusion, not shown: a dimerising Fc or GST) VIHVTKEVKEVATLSCGYNVSVEELAQTRIYWQKDKKMVLTMMSGDLNIWPEYKNRTIFDITNNLSIVILGLRPSDEGTYECVVLKYEKDSFKREHLAEVTLSVKAD |
| 1000 | 7760 | 12.2 | 110 | 23300 | 8 | 15.2 | – | variant CD80 IgV-Fc M43I/M47L/A71G (Fc fusion, not shown: a dimerising Fc or GST) VIHVTKEVKEVATLSCGHNVSVEELAQTRIYWQKEKKMVLTMISGDLNIWPEYKNRTIFDITNNLSIVILGLRPSDEGTYECVVLKYEKDAFKREHLAEVTLSVKAD |
| 823 | 5100 | 14.5 | 72.5 | 27800 | 6 | 12.5 | – | variant CD80 IgV-Fc M47I/A71G (Fc fusion, not shown: a dimerising Fc or GST) VIHVTKEVKEVATLSCGHNVSVEELAQTRIYWQKEKKMVLTMMSGDINIWPEYKNRTIFDITNNLSIVILGLRPSDEGTYECVVLKYEKDAFKREHLAEVTLSVKAD |
| 990 | 8170 | 11.4 | 116 | 21900 | 8 | 15 | – | variant CD80 IgV-Fc V22A/E35D/M47L/A71G (Fc fusion, not shown: a dimerising Fc or GST) VIHVTKEVKEVATLSCGHNVSAEELAQTRIYWQKDKKMVLTMMSGDLNIWPEYKNRTIFDITNNLSIVILGLRPSDEGTYECVVLKYEKDAFKREHLAEVTLSVKAD |
| 461 | 2940 | 10.9 | 41.7 | 20900 | 6 | 7 | – | variant CD80 IgV-Fc E35D/M47V (Fc fusion, not shown: a dimerising Fc or GST) VIHVTKEVKEVATLSCGHNVSVEELAQTRIYWQKDKKMVLTMMSGDVNIWPEYKNRTIFDITNNLSIVILALRPSDEGTYECVVLKYEKDAFKREHLAEVTLSVKAD |
| 479 | 3530 | 13.7 | 50.2 | 26300 | 7 | 7.3 | – | variant CD80 IgV-Fc H18Y/E35D (Fc fusion, not shown: a dimerising Fc or GST) VIHVTKEVKEVATLSCGYNVSVEELAQTRIYWQKDKKMVLTMMSGDMNIWPEYKNRTIFDITNNLSIVILALRPSDEGTYECVVLKYEKDAFKREHLAEVTLSVKAD |

Second part, the binder before the results:

| Binder | MFI at 33.3 nM [1] [MFI] | MFI at 33.3 nM [2] [MFI] | Fold change to WT CD80 [3] [fold] | Fold change to WT CD80 [4] [fold] | MFI at 33.3 nM [5] [MFI] | Ratio of PDL1:CD28 [6] [ratio] | Fold change to WT CD80 [7] [fold] | MFI at 33.3 nM [8] [MFI] |
| --- | --- | --- | --- | --- | --- | --- | --- | --- |
| CD80 WT IgV-Fc (Fc fusion, not shown: a dimerising Fc or GST, also called WT CD80 IgV-Fc; wild-type CD80 IgV-Fc) VIHVTKEVKEVATLSCGHNVSVEELAQTRIYWQKEKKMVLTMMSGDMNIWPEYKNRTIFDITNNLSIVILALRPSDEGTYECVVLKYEKDAFKREHLAEVTLSVKAD | 66 | 70.3 | 1 | 1 | 1920 | 1 | 1 | – |
| variant CD80 IgV-Fc D46V/M47I/A71G (Fc fusion, not shown: a dimerising Fc or GST) VIHVTKEVKEVATLSCGHNVSVEELAQTRIYWQKEKKMVLTMMSGVINIWPEYKNRTIFDITNNLSIVILGLRPSDEGTYECVVLKYEKDAFKREHLAEVTLSVKAD | 1320 | 7330 | 14.8 | 104 | 28400 | 6 | 20.1 | – |
| variant CD80 IgV-Fc E35D/M43I/D46E/A71G/L85M (Fc fusion, not shown: a dimerising Fc or GST) VIHVTKEVKEVATLSCGHNVSVEELAQTRIYWQKDKKMVLTMISGEMNIWPEYKNRTIFDITNNLSIVILGLRPSDEGTYECVVMKYEKDAFKREHLAEVTLSVKAD | 200 | 7140 | 14 | 102 | 26900 | 36 | 3 | – |
| variant CD80 IgV-Fc E35D/D46E/A91G (Fc fusion, not shown: a dimerising Fc or GST) VIHVTKEVKEVATLSCGHNVSVEELAQTRIYWQKDKKMVLTMMSGEMNIWPEYKNRTIFDITNNLSIVILALRPSDEGTYECVVLKYEKDGFKREHLAEVTLSVKAD | 3450 | 2820 | 16.8 | 40.1 | 32200 | 1 | 52.3 | – |
| variant CD80 IgV-Fc E35D/D46E/M47L/V68M/A71G/Y87C/K93R (Fc fusion, not shown: small tags and cut ends; a dimerising Fc or GST) VIHVTKEVKEVATLSCGHNVSVEELAQTRIYWQKDKKMVLTMMSGELNIWPEYKNRTIFDITNNLSIMILGLRPSDEGTYECVVLKCEKDAFRREHLAEVTLSVKAD | – | – | – | – | – | – | – | 24300 |
| variant CD80 IgV-Fc E35D/D46E/L85M (Fc fusion, not shown: a dimerising Fc or GST) VIHVTKEVKEVATLSCGHNVSVEELAQTRIYWQKDKKMVLTMMSGEMNIWPEYKNRTIFDITNNLSIVILALRPSDEGTYECVVMKYEKDAFKREHLAEVTLSVKAD | 164 | 2880 | 15.8 | 41 | 30300 | 18 | 2.5 | – |
| variant CD80 IgV-Fc E35D/D46E/M47I (Fc fusion, not shown: a dimerising Fc or GST) VIHVTKEVKEVATLSCGHNVSVEELAQTRIYWQKDKKMVLTMMSGEINIWPEYKNRTIFDITNNLSIVILALRPSDEGTYECVVLKYEKDAFKREHLAEVTLSVKAD | 1000 | 3790 | 11.2 | 53.9 | 21400 | 4 | 15.2 | – |
| variant CD80 IgV-Fc E35D/D46E (Fc fusion, not shown: a dimerising Fc or GST) VIHVTKEVKEVATLSCGHNVSVEELAQTRIYWQKDKKMVLTMMSGEMNIWPEYKNRTIFDITNNLSIVILALRPSDEGTYECVVLKYEKDAFKREHLAEVTLSVKAD | 779 | 3760 | 14.6 | 53.4 | 27900 | 5 | 11.8 | – |
